Measurements published in paper PMC10859935, “Surface Charge Can Modulate Phase Separation of Multidomain Proteins” (Journal of the American Chemical Society, 2024).

Experiments:
[1] = molecular target: polySIM (protein consisting of 10 SIMs derived from the PIASx protein)
[2] = molecular target: small ubiquitin-like modifier protein 1 (SUMO1) domain, wild type (UniProt P63165); test: static light scattering (second virial coefficient A2); pH 8.0; 25 °C; 20 mM HEPES, 150 mM KCl, 1 mM MgCl2, 1 mM DTT, 1 mM EGTA; A2 from the slope of scattering intensity versus concentration
[3] = molecular target: small ubiquitin-like modifier protein 1 (SUMO1) domain, wild type (UniProt P63165); test: static light scattering (second virial coefficient A2); pH 6.5; 25 °C; A2 from the slope of scattering intensity versus mass concentration; weak self-association of a single domain
[4] = molecular target: T1, small ubiquitin-like modifier protein 1 (SUMO1) domain, wild type (UniProt P63165 1-97); test: ITC; 50–100 μM SIM peptide in the cell, SUMO in the syringe; 25 °C; 20 mM HEPES (pH 7.0 or 8.0) or 20 mM MES (pH 6.5), 150 mM KCl, 1 mM MgCl2, 1 mM DTT, 1 mM EGTA; 1:1 binding model; conditions: both partners purified
T1 construct: SUMO1, single domain; also called WT SUMO; WT SUMO1; source: BL21(DE3) T1R cells, purified (Ni-NTA, TEV cleavage, Source15Q, Superdex200); not shown: His8, N-terminal, cleaved
T1 sequence (P63165 1-97): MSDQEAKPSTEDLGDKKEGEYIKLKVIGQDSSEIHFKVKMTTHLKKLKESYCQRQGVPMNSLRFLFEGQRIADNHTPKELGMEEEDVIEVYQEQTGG

polySUMO (synthetic protein consisting of five SUMO domains)
phase-separation threshold (module concentration, equimolar modules) by turbidity at 340 nm, pH 6 [1]: 75 μM
phase-separation threshold (module concentration, equimolar modules) by turbidity at 340 nm, pH 6.5 [1]: 100 μM
phase-separation threshold (module concentration, equimolar modules) by turbidity at 340 nm, pH 7 [1]: 150 μM
phase-separation threshold (module concentration, equimolar modules) by turbidity at 340 nm, pH 8 [1]: 300 μM

small ubiquitin-like modifier protein 1 (SUMO1) domain, wild type (from UniProt P63165 1-97) (natural protein)
A2 (second virial coefficient) [2]: 0.00012 mol mL g^–2
A2 (second virial coefficient) [3]: -0.00012 mol mL g^–2

B1: SUMO interaction motif (SIM) peptide derived from the PIASx protein (peptide)
chain: KVDVIDLTIESSSDEEEDPPAKR
Kd [4]: 15 to 20 µM
